Test results from patent US20250381289A1 (Genmab, published 2025).

Legend:
[1] = molecular target: T1, Human EGFR (human, UniProt P00533); assay: ELISA, plate coated with 100 ng/well human EGFR recombinant protein, HRP anti-human Fc, OD450
T1 construct: recombinant protein coated on the ELISA plate; also called human EGFR recombinant protein

[2] = molecular target: T2, Human cMET; assay: ELISA, plate coated with 100 ng/well human cMET recombinant protein, HRP anti-human Fc, OD450
T2 construct: also called human cMET recombinant protein
T2 chain: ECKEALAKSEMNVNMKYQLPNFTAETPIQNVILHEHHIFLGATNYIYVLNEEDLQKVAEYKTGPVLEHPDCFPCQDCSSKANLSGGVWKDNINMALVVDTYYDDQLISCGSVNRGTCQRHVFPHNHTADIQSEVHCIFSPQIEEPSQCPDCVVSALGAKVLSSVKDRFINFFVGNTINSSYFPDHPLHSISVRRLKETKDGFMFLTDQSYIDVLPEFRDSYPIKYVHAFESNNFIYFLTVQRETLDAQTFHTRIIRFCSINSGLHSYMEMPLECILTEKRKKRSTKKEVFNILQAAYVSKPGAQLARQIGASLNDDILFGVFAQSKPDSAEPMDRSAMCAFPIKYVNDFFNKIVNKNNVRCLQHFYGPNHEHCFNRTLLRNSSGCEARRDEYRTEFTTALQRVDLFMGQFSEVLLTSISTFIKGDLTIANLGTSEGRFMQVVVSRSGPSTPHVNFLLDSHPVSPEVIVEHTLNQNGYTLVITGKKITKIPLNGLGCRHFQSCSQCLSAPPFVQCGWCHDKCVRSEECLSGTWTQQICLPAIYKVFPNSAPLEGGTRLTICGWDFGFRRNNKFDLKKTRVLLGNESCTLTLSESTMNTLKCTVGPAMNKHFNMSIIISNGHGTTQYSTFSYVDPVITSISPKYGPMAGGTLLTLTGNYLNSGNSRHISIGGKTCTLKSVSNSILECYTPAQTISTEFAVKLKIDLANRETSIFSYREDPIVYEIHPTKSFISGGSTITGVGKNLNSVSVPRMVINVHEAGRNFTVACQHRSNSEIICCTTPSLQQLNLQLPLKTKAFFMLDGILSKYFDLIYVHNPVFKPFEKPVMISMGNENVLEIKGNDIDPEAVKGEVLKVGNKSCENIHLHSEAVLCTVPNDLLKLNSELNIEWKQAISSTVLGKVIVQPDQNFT

[3] = molecular target: T3, cMET on EGFR and cMET co-expressed tumor cell lines (UniProt P08581 25-1390, limits assumed); assay: flow cytometry on CAL-27 cells (co-express EGFR and cMET), PE anti-human Fc; signal of the whole bispecific, not resolved by arm
T3 construct: whole, on cells

[4] = molecular target: T3, cMET on EGFR and cMET co-expressed …; assay: flow cytometry, EBC-1 cells (co-express EGFR and cMET; both arms contribute)
[5] = molecular target: T4, EGFR on EGFR and cMET co-expressed tumor cell lines (UniProt P00533 25-1210, limits assumed); assay: as above
T4 construct: whole, on cells

[6] = molecular target: T3, cMET on EGFR and cMET co-expressed …; assay: flow cytometry, HCC-827 cells (co-express EGFR and cMET; both arms contribute)
[7] = molecular target: T4, EGFR on EGFR and cMET co-expressed …; assay: as above
[8] = molecular target: T3, cMET on EGFR and cMET co-expressed …; assay: flow cytometry, A549 cells (co-express EGFR and cMET; both arms contribute)
[9] = molecular target: T4, EGFR on EGFR and cMET co-expressed …; assay: as above
[10] = molecular target: T3, cMET on EGFR and cMET co-expressed …; assay: flow cytometry, EBC-1 cells (co-express EGFR and cMET; both arms contribute); remark: listed apart in the source
[11] = molecular target: T4, EGFR on EGFR and cMET co-expressed …; assay: as above; remark: listed apart in the source
[12] = molecular target: T5, human EGFR-Fc (human, UniProt P00533 25-645); assay: blocking ELISA: coated human EGFR-Fc, antibody titrated, then EGF-His (blocked ligand), anti-His-HRP
T5 construct: not shown: Fc part, not described

[13] = molecular target: T3, cMET on EGFR and cMET co-expressed …; assay: flow cytometry on EBC-1 cells (co-express EGFR and cMET), PE anti-human Fc; signal of the whole bispecific, not resolved by arm
[14] = molecular target: T4, EGFR on EGFR and cMET co-expressed …; assay: as above
[15] = molecular target: T6, human cMET-Fc (human, UniProt P08581 25-932); assay: blocking ELISA: coated human cMET-Fc, antibody titrated, then human HGF-His (blocked ligand), anti-His-HRP
T6 construct: not shown: Fc part, not described

[16] = molecular target: T3, cMET on EGFR and cMET co-expressed …; assay: flow cytometry, SW620 cells (named among the EGFR and cMET co-expressing lines; both arms contribute)
[17] = molecular target: T4, EGFR on EGFR and cMET co-expressed …; assay: as above

B1: Amivantamab (bispecific antibody, human IgG1, kappa)
heavy 1: not shown
light 1: not shown
heavy 2: not shown
light 2: DIQMTQSPSSVSASVGDRVTITCRASQGISNWLAWFQHKPGKAPKLLIYAASSLLSGVPSRFSGSGSGTDFTLTISSLQPEDFATYYCQQANSFPITFGQGTRLEIKRTVAAPSVFIFPPSDEQLKSGTASVVCLLNNFYPREAKVQWKVDNALQSGNSQESVTEQDSKDSTYSLSSTLTLSKADYEKHKVYACEVTHQGLSSPVTKSFNRGEC
notes: Bispecific positive control
EC50 (read off the curve) [1]: ~0.4 nM | EC50 (read off the curve) [2]: ~0.1 nM | EC50 (read off the curve) [3]: ~3 nM | EC50 (read off the curve) [4]: ~2 nM | EC50 (read off the curve) [5]: ~2 nM | EC50 (read off the curve) [6]: ~3 nM | EC50 (read off the curve) [7]: ~3 nM | EC50 (read off the curve) [8]: ~1 nM | EC50 (read off the curve) [9]: ~1 nM | EC50 (read off the curve) [10]: ~1 nM | EC50 (read off the curve) [11]: ~1 nM | IC50 (read off the curve) [12]: ~0.2 nM | EC50 (read off the curve) [13]: ~2 nM | EC50 (read off the curve) [14]: ~2 nM | IC50 (read off the curve) [15]: ~0.8 nM | EC50 (read off the curve) [16]: ~0.2 nM | EC50 (read off the curve) [17]: ~0.2 nM
